Results reported in publication PMC3684277.

Biological target: HCMV capsid (icosahedral T=16 capsid shell of MCP, mCP, mC-BP and SCP) (human cytomegalovirus strain AD169)
Assay: co-sedimentation

“UL32-encoded basic phosphorylated protein pp150 (natural protein)” was tested, and the % decrease in chemically treated particles was 5%.
